Reference: the supplement of paper PMC12338614
± gives the uncertainty stated by the source.

B1: library; numbered along this chain (parent)
chain: MEVVDPQQLGMFTEGELMSVGMDTFIHRIDSTEVIYQPRRKRAKLIGKYLMGDLLGEGSYGKVKEVLDSETLCRRAVKILKKKKLRRIPNGEANVKKEIQLLRRLRHKNVIQLVDVLYNEEKQKMYMVMEYCVCGMQEMLDSVPEKRFPVCQAHGYFCQLIDGLEYLHSQGIVHKDIKPGNLLLTTGGTLKISDLGVAEALHPFAADDTCRTSQGSPAFQPPEIANGLDTFSGFKVDIWSAGVTLYNITTGLYPFEGDNIYKLFENIGKGSYAIPGDCGPPLSDLLKGMLEYEPAKRFSIRQIRQHSWFRKKHPPAEAPVPIPPSPDTKDRWRSMTVVPYLEDLHGADEDEDLFDIEDDIIYTQDFTVPGQVPEEEASHNGQRRGLPKAVCMNGTEAAQLSTKSRAEGRAPNPARKACSASSKIRRLSACKQQ

Variants of: B1
Test: STK11 functional score (HeLa growth suppression), rescaled enrichment; synonymous median = 1, nonsense median = 0 (normalised score)
Conditions: with HeLa; variant type: missense
Procedure: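 Deep mutational scan (TileSeq/POPCode codon randomisation) of full-length codon-optimised STK11 cDNA integrated at a Bxb1 landing pad (AAVS1) in HeLa cells. Restoring functional STK11 suppresses HeLa proliferation. Variant frequencies were measured by NGS before and after about two weeks of growth. The error-corrected enrichment log-ratio was rescaled so that synonymous median = 1 and nonsense median = 0, scores above 1 were compressed, and codon-level and three biological replicate scores were combined; error is the bootstrapped standard error. Scale: synonymous median = 1, nonsense median = 0; below 0.5 = damaging.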

I35M and E57W are within error of each other in STK11 functional score: 0.908 ± 0.52 for the first, 0.873 ± 0.077 for the second.

Compared with L286S, L286Y is higher in STK11 functional score: 0.0276 ± 0.19 for the first, 1.36 ± 0.45 for the second.

L286R and L286P are within error of each other in STK11 functional score: -0.117 ± 0.22 for the first, -0.27 ± 0.087 for the second.

E293N and K403L are within error of each other in STK11 functional score: 1.55 ± 0.23 for the first, 1.25 ± 0.46 for the second.

Going from F219P to G135Y, the STK11 functional score rises from 0.116 ± 0.32 to 1.32 ± 0.09.

Compared with G135A, V110R is lower in STK11 functional score: 1.56 ± 0.28 for the first, -0.0313 ± 0.081 for the second.

Compared with D53W, D53L is higher in STK11 functional score: 0.204 ± 0.082 for the first, 0.555 ± 0.21 for the second.

Compared with G242A, G242S is lower in STK11 functional score: 0.823 ± 0.13 for the first, 0.0147 ± 0.098 for the second.

Going from G242Y to A225L, the STK11 functional score rises from -0.0296 ± 0.066 to 1.52 ± 0.2.

A225V and L400R are within error of each other in STK11 functional score: 1.28 ± 0.52 for the first, 1.37 ± 0.26 for the second.

Compared with L400G, R297I is lower in STK11 functional score: 1.48 ± 0.14 for the first, 0.0965 ± 0.092 for the second.

Going from R297D to Q112L, the STK11 functional score rises from 0.0713 ± 0.079 to 1.08 ± 0.2.

V4S and M11K are within error of each other in STK11 functional score: 0.996 ± 0.14 for the first, 1.32 ± 0.44 for the second.

P38G and H174P are within error of each other in STK11 functional score: 0.508 ± 0.53 for the first, 0.0698 ± 0.089 for the second.

Compared with H174G, P324I is higher in STK11 functional score: 0.326 ± 0.24 for the first, 1.56 ± 0.27 for the second.

D277F and D277G are within error of each other in STK11 functional score: 1.35 ± 0.39 for the first, 1.16 ± 0.2 for the second.

Compared with L113S, E342F is higher in STK11 functional score: 0.517 ± 0.11 for the first, 1.14 ± 0.25 for the second.

S169T and S142C are within error of each other in STK11 functional score: 1.22 ± 0.74 for the first, 1.17 ± 0.2 for the second.

S213V and S213F are within error of each other in STK11 functional score: 1.02 ± 0.12 for the first, 1.35 ± 0.41 for the second.

First: E98V
Second: R331E
The STK11 functional score of the first is lower: 0.117 ± 0.083 for the first, 1.12 ± 0.55 for the second.

Going from A316P to D208R, the STK11 functional score rises from 0.694 ± 0.36 to 1.59 ± 0.26.

T402N and T402L are within error of each other in STK11 functional score: 0.935 ± 0.33 for the first, 1.23 ± 0.27 for the second.

R40T and E351P are within error of each other in STK11 functional score: 1.68 ± 0.32 for the first, 1.55 ± 0.14 for the second.

A318T and A318F are within error of each other in STK11 functional score: 1.17 ± 0.67 for the first, 1.6 ± 0.22 for the second.

First: I361H
Second: G385V
The STK11 functional score of the first is higher: 1.21 ± 0.46 for the first, 0.433 ± 0.12 for the second.

V34G and C158L are within error of each other in STK11 functional score: 1.08 ± 0.45 for the first, 0.856 ± 0.2 for the second.

S421D and E14Q are within error of each other in STK11 functional score: 1.62 ± 0.17 for the first, 1.35 ± 0.3 for the second.

C418V and C418S are within error of each other in STK11 functional score: 1.62 ± 0.19 for the first, 1.51 ± 0.17 for the second.

T244W and T244N are within error of each other in STK11 functional score: 0.257 ± 0.092 for the first, 0.0991 ± 0.1 for the second.

Q305D and C132K are within error of each other in STK11 functional score: 1.36 ± 0.16 for the first, 1.25 ± 0.49 for the second.

E396M and E396N are within error of each other in STK11 functional score: 1.47 ± 0.39 for the first, 1.49 ± 0.1 for the second.

L201K and L201A are within error of each other in STK11 functional score: 1.64 ± 0.14 for the first, 1.59 ± 0.23 for the second.

V372K and V372L are within error of each other in STK11 functional score: 1.6 ± 0.24 for the first, 1.4 ± 0.3 for the second.

Compared with P280M, L290R is lower in STK11 functional score: 1.04 ± 0.38 for the first, -0.22 ± 0.065 for the second.

Going from L290P to E121Y, the STK11 functional score rises from 0.264 ± 0.16 to 1.36 ± 0.37.

T328R and T328I are within error of each other in STK11 functional score: 1.5 ± 0.25 for the first, 1.29 ± 0.075 for the second.

First: D350G
Second: D176N
The STK11 functional score of the first is higher: 1.29 ± 0.28 for the first, -0.273 ± 0.098 for the second.

First: D194F
Second: S271L
The STK11 functional score of the first is lower: -0.213 ± 0.11 for the first, 1.39 ± 0.29 for the second.

S271T and S271Q are within error of each other in STK11 functional score: 1.17 ± 0.2 for the first, 1.08 ± 0.65 for the second.

First: L245G
Second: A397G
The STK11 functional score of the first is lower: -0.177 ± 0.094 for the first, 1.14 ± 0.17 for the second.

A397K and F354E are within error of each other in STK11 functional score: 0.947 ± 0.67 for the first, 1.45 ± 0.27 for the second.

A273T and A273W are within error of each other in STK11 functional score: 1.46 ± 0.34 for the first, 1.65 ± 0.18 for the second.

L427E and L427A are within error of each other in STK11 functional score: 1.53 ± 0.25 for the first, 1.6 ± 0.32 for the second.

First: A429W
Second: P275M
The STK11 functional score of the first is higher: 1.21 ± 0.38 for the first, 0.445 ± 0.12 for the second.

First: H107E
Second: L184D
The STK11 functional score of the first is higher: 0.776 ± 0.079 for the first, -0.0783 ± 0.1 for the second.

Going from W308G to D365S, the STK11 functional score rises from 0.086 ± 0.081 to 1.51 ± 0.26.

D365R and D365G are within error of each other in STK11 functional score: 1.61 ± 0.14 for the first, 1.55 ± 0.15 for the second.

First: I274L
Second: G171W
The STK11 functional score of the first is lower: 1.02 ± 0.16 for the first, 1.53 ± 0.11 for the second.

P294T and A241C are within error of each other in STK11 functional score: 1.09 ± 0.31 for the first, 1.21 ± 0.1 for the second.

D162M and D162F are within error of each other in STK11 functional score: 1.62 ± 0.2 for the first, 1.15 ± 0.4 for the second.

First: A206D
Second: A206F
The STK11 functional score of the first is higher: 1.07 ± 0.12 for the first, 0.495 ± 0.22 for the second.

S232G and S232H are within error of each other in STK11 functional score: 0.97 ± 0.2 for the first, 1.3 ± 0.14 for the second.

I267V and I267R are within error of each other in STK11 functional score: 1.09 ± 0.29 for the first, 1.01 ± 0.33 for the second.

Compared with G56C, Q364M is higher in STK11 functional score: 0.475 ± 0.15 for the first, 0.768 ± 0.13 for the second.

Going from Q364T to C210F, the STK11 functional score falls from 1.46 ± 0.14 to 1.04 ± 0.12.

Compared with C210P, K191W is lower in STK11 functional score: 1.18 ± 0.4 for the first, 0.459 ± 0.11 for the second.

Compared with E265F, P179W is lower in STK11 functional score: 1.08 ± 0.34 for the first, 0.088 ± 0.11 for the second.

R415W and R415N are within error of each other in STK11 functional score: 1.5 ± 0.18 for the first, 1.58 ± 0.34 for the second.

First: I111R
Second: G394M
The STK11 functional score of the first is lower: 1.16 ± 0.13 for the first, 1.62 ± 0.15 for the second.

G370L and G370Q are within error of each other in STK11 functional score: 1.42 ± 0.27 for the first, 1.55 ± 0.18 for the second.

Going from P323N to P323Q, the STK11 functional score falls from 1.53 ± 0.15 to 0.422 ± 0.67.

Going from R384Q to L54I, the STK11 functional score falls from 1.62 ± 0.32 to 0.71 ± 0.19.

Going from V173Y to S401N, the STK11 functional score rises from 1.04 ± 0.13 to 1.4 ± 0.14.

R405H and L182N are within error of each other in STK11 functional score: 1.59 ± 0.29 for the first, 1.01 ± 0.31 for the second.

Going from I322G to N380C, the STK11 functional score rises from -0.0839 ± 0.11 to 1.57 ± 0.28.

N380Y and K96Q are within error of each other in STK11 functional score: 1.14 ± 0.4 for the first, 0.724 ± 0.15 for the second.

Going from N181T to N181H, the STK11 functional score rises from -0.449 ± 0.1 to 0.134 ± 0.14.

First: N181M
Second: V236S
The STK11 functional score of the first is lower: -0.246 ± 0.091 for the first, 1.4 ± 0.37 for the second.

K416L and M289C are within error of each other in STK11 functional score: 0.986 ± 0.17 for the first, 0.75 ± 0.1 for the second.

First: M289S
Second: F234C
The STK11 functional score of the first is lower: -0.188 ± 0.1 for the first, 1.05 ± 0.39 for the second.

First: Q220K
Second: Q220P
The STK11 functional score of the first is higher: 0.583 ± 0.28 for the first, 0.0844 ± 0.12 for the second.

Compared with E120L, R39T is lower in STK11 functional score: 1.38 ± 0.28 for the first, 0.548 ± 0.26 for the second.

Going from R310I to R310G, the STK11 functional score falls from 1.59 ± 0.16 to 0.764 ± 0.2.

H345P and H345F are within error of each other in STK11 functional score: 1.29 ± 0.27 for the first, 1.41 ± 0.33 for the second.

Going from V116L to Q7M, the STK11 functional score falls from 1.14 ± 0.23 to 0.16 ± 0.091.

T185S and D359Y are within error of each other in STK11 functional score: 0.939 ± 0.26 for the first, 1.13 ± 0.21 for the second.

K83S and K41W are within error of each other in STK11 functional score: 1.7 ± 0.19 for the first, 1.49 ± 0.17 for the second.

First: F255N
Second: K48Y
The STK11 functional score of the first is lower: 0.322 ± 0.14 for the first, 1.4 ± 0.13 for the second.

First: P89S
Second: Y253S
The STK11 functional score of the first is higher: 0.816 ± 0.17 for the first, 0.394 ± 0.12 for the second.

P319L and P319M are within error of each other in STK11 functional score: 1.3 ± 0.17 for the first, 1.39 ± 0.12 for the second.

M335L and L344C are within error of each other in STK11 functional score: 1.03 ± 0.18 for the first, 1.12 ± 0.45 for the second.

G257S and G257V are within error of each other in STK11 functional score: 1.39 ± 0.13 for the first, 1.23 ± 0.17 for the second.

Going from G227T to L55M, the STK11 functional score falls from 1.67 ± 0.13 to 0.938 ± 0.19.

Variant E70I has an STK11 functional score of 1.54 ± 0.19.
